From publication PMC12443421

Molecular target: wild-type unmodified 147 bp nucleosome (nucleosome core particle), P04908;P62807;Q71DI3;P62805
Test: EMSA
Conditions: chain shown with the change

Row | Kd [µM] | Kd (0-32 µM KDM5A^MutR titration) [µM] | Binder
1 | 10.3 | – | KDM5A^CAT (lysine demethylase 5A, residues 1-801), P29375 R264A; R265A; R266A; R271A (protein) MAGVGPGGYAAEFVPPPECPVFEPSWEEFTDPLSFIGRIRPLAEKTGICKIRPPKDWQPPFACEVKSFRFTPRVQRLNELEAMTRVRLDFLDQLAKFWELQGSTLKIPVVERKILDLYALSKIVASKGGFEMVTKEKKWSKVGSRLGYLPGKGTGSLLKSHYERILYPYELFQSGVSLMGVQMPNLDLKEKVEPEVLSTDTQTSPEPGTRMNILPKRTRRVKTQSESGDVSRNTELKKLQIFGAGPKVVGLAMGTKDKEDEVTAAAKVTNRSDAFNMQMRQRKGTLSVNFVDLYVCMFCGRGNNEDKLLLCDGCDDSYHTFCLIPPLPDVPKGDWRCPKCVAEECSKPREAFGFEQAVREYTLQSFGEMADNFKSDYFNMPVHMVPTELVEKEFWRLVSSIEEDVIVEYGADISSKDFGSGFPVKDGRRKILPEEEEYALSGWNLNNMPVLEQSVLAHINVDISGMKVPWLYVGMCFSSFCWHIEDHWSYSINYLHWGEPKTWYGVPSHAAEQLEEVMRELAPELFESQPDLLHQLVTIMNPNVLMEHGVPVYRTNQCAGEFVVTFPRAYHSGFNQGYNFAEAVNFCTADWLPIGRQCVNHYRRLRRHCVFSHEELIFKMAADPECLDVGLAAMVCKELTLMTEEETRLRESVVQMGVLMSEEEVFELVPDDERQCSACRTTCFLSALTCSCNPERLVCLYHPTDLCPCPMQKKCLRYRYPLEDLPSLLYGVKVRAQSYDTWVSRVTEALSANFNHKKDLIELRVMLEDAEDRKYPENDLFRKLRDAVKEAETCASVAQLL
2 | 7.8 | – | KDM5A^CAT (lysine demethylase 5A, residues 1-801), P29375 R280A; R282A (protein) MAGVGPGGYAAEFVPPPECPVFEPSWEEFTDPLSFIGRIRPLAEKTGICKIRPPKDWQPPFACEVKSFRFTPRVQRLNELEAMTRVRLDFLDQLAKFWELQGSTLKIPVVERKILDLYALSKIVASKGGFEMVTKEKKWSKVGSRLGYLPGKGTGSLLKSHYERILYPYELFQSGVSLMGVQMPNLDLKEKVEPEVLSTDTQTSPEPGTRMNILPKRTRRVKTQSESGDVSRNTELKKLQIFGAGPKVVGLAMGTKDKEDEVTRRRKVTNRSDAFNMQMAQAKGTLSVNFVDLYVCMFCGRGNNEDKLLLCDGCDDSYHTFCLIPPLPDVPKGDWRCPKCVAEECSKPREAFGFEQAVREYTLQSFGEMADNFKSDYFNMPVHMVPTELVEKEFWRLVSSIEEDVIVEYGADISSKDFGSGFPVKDGRRKILPEEEEYALSGWNLNNMPVLEQSVLAHINVDISGMKVPWLYVGMCFSSFCWHIEDHWSYSINYLHWGEPKTWYGVPSHAAEQLEEVMRELAPELFESQPDLLHQLVTIMNPNVLMEHGVPVYRTNQCAGEFVVTFPRAYHSGFNQGYNFAEAVNFCTADWLPIGRQCVNHYRRLRRHCVFSHEELIFKMAADPECLDVGLAAMVCKELTLMTEEETRLRESVVQMGVLMSEEEVFELVPDDERQCSACRTTCFLSALTCSCNPERLVCLYHPTDLCPCPMQKKCLRYRYPLEDLPSLLYGVKVRAQSYDTWVSRVTEALSANFNHKKDLIELRVMLEDAEDRKYPENDLFRKLRDAVKEAETCASVAQLL
3 | 14 | 14 | KDM5A^CAT (lysine demethylase 5A, residues 1-801), P29375 R210A; R217A; R219A; R220A; R232A; R264A; R265A; R266A; R271A; R280A; R282A (protein) MAGVGPGGYAAEFVPPPECPVFEPSWEEFTDPLSFIGRIRPLAEKTGICKIRPPKDWQPPFACEVKSFRFTPRVQRLNELEAMTRVRLDFLDQLAKFWELQGSTLKIPVVERKILDLYALSKIVASKGGFEMVTKEKKWSKVGSRLGYLPGKGTGSLLKSHYERILYPYELFQSGVSLMGVQMPNLDLKEKVEPEVLSTDTQTSPEPGTAMNILPKATAAVKTQSESGDVSANTELKKLQIFGAGPKVVGLAMGTKDKEDEVTAAAKVTNASDAFNMQMAQAKGTLSVNFVDLYVCMFCGRGNNEDKLLLCDGCDDSYHTFCLIPPLPDVPKGDWRCPKCVAEECSKPREAFGFEQAVREYTLQSFGEMADNFKSDYFNMPVHMVPTELVEKEFWRLVSSIEEDVIVEYGADISSKDFGSGFPVKDGRRKILPEEEEYALSGWNLNNMPVLEQSVLAHINVDISGMKVPWLYVGMCFSSFCWHIEDHWSYSINYLHWGEPKTWYGVPSHAAEQLEEVMRELAPELFESQPDLLHQLVTIMNPNVLMEHGVPVYRTNQCAGEFVVTFPRAYHSGFNQGYNFAEAVNFCTADWLPIGRQCVNHYRRLRRHCVFSHEELIFKMAADPECLDVGLAAMVCKELTLMTEEETRLRESVVQMGVLMSEEEVFELVPDDERQCSACRTTCFLSALTCSCNPERLVCLYHPTDLCPCPMQKKCLRYRYPLEDLPSLLYGVKVRAQSYDTWVSRVTEALSANFNHKKDLIELRVMLEDAEDRKYPENDLFRKLRDAVKEAETCASVAQLL
4 | 12 | – | KDM5A^CAT (lysine demethylase 5A, residues 1-801), P29375 R217A; R219A; R220A (protein) MAGVGPGGYAAEFVPPPECPVFEPSWEEFTDPLSFIGRIRPLAEKTGICKIRPPKDWQPPFACEVKSFRFTPRVQRLNELEAMTRVRLDFLDQLAKFWELQGSTLKIPVVERKILDLYALSKIVASKGGFEMVTKEKKWSKVGSRLGYLPGKGTGSLLKSHYERILYPYELFQSGVSLMGVQMPNLDLKEKVEPEVLSTDTQTSPEPGTRMNILPKATAAVKTQSESGDVSRNTELKKLQIFGAGPKVVGLAMGTKDKEDEVTRRRKVTNRSDAFNMQMRQRKGTLSVNFVDLYVCMFCGRGNNEDKLLLCDGCDDSYHTFCLIPPLPDVPKGDWRCPKCVAEECSKPREAFGFEQAVREYTLQSFGEMADNFKSDYFNMPVHMVPTELVEKEFWRLVSSIEEDVIVEYGADISSKDFGSGFPVKDGRRKILPEEEEYALSGWNLNNMPVLEQSVLAHINVDISGMKVPWLYVGMCFSSFCWHIEDHWSYSINYLHWGEPKTWYGVPSHAAEQLEEVMRELAPELFESQPDLLHQLVTIMNPNVLMEHGVPVYRTNQCAGEFVVTFPRAYHSGFNQGYNFAEAVNFCTADWLPIGRQCVNHYRRLRRHCVFSHEELIFKMAADPECLDVGLAAMVCKELTLMTEEETRLRESVVQMGVLMSEEEVFELVPDDERQCSACRTTCFLSALTCSCNPERLVCLYHPTDLCPCPMQKKCLRYRYPLEDLPSLLYGVKVRAQSYDTWVSRVTEALSANFNHKKDLIELRVMLEDAEDRKYPENDLFRKLRDAVKEAETCASVAQLL
